We go through four molecules from patent US20140087995A1 (published 2014).

The target of test [1] is T1, rat calcitonin receptor (rat, UniProt P32214 25-516).
T1 construct: whole, on cells; Membranes prepared from transiently transfected BHK tk'ts 13 cells (Assay VIII); also called rCTR; rCT
T1 sequence (looked up): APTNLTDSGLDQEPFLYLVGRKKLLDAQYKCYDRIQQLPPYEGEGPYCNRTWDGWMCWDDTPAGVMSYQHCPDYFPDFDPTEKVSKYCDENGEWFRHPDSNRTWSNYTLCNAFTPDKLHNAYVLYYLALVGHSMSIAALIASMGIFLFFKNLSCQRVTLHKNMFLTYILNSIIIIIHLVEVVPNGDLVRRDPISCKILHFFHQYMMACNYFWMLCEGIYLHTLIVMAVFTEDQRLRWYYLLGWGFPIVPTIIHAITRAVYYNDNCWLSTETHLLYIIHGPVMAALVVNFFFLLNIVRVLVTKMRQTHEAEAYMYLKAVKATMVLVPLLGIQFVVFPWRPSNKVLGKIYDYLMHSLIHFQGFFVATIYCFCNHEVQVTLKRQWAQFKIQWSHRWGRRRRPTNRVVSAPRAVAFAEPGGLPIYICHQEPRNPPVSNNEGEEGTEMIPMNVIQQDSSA
Nature of the test: ratio of binding IC50s: rat calcitonin receptor / rat amylin receptor (reference).

The target in test [2] is T2, human calcitonin receptor (human, UniProt P30988 25-474).
T2 construct: whole, on cells; Membranes prepared from a stably transfected BHK cell line (Assay VII); also called hCTR; hCT
T2 sequence (looked up): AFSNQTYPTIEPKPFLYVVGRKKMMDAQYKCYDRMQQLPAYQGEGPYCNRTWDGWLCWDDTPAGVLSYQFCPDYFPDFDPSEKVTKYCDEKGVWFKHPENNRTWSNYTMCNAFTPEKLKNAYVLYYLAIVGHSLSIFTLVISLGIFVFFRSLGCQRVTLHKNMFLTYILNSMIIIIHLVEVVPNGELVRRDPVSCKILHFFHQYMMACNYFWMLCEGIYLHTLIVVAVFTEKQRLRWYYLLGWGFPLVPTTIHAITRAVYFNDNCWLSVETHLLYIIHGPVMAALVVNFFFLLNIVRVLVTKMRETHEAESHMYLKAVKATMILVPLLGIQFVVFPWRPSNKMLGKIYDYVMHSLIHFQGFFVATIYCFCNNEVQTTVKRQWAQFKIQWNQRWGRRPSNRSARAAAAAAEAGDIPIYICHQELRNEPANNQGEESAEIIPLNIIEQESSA
Nature of the test: ratio of binding IC50s: human calcitonin receptor / human amylin receptor (reference). The gist of the method: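 Competition binding by SPA uses membrane preparations (35 ng/μL final) in pH 7.4 Hepes buffer with 1 mM CaCl2 and 5 mM MgCl₂. Incubation lasts 120 min at 25° C, and IC₅₀ comes from one-site fitting.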

For test [3], the target named is T1, rat calcitonin receptor. Nature of the test: SPA competition vs 125I-calcitonin, membranes of BHK cells with rat calcitonin receptor (Assay VIII).
For test [4], the target named is T3, rat amylin receptor (rat calcitonin receptor + rat RAMP 3) (rat, UniProt P32214 25-516; Q9JJ73 23-147).
T3 construct: whole, on cells; Membranes prepared from transiently transfected BHK tk'ts 13 cells (Assay VI); also called rAmylin-R; rAmylin
T3 sequence (looked up) 1: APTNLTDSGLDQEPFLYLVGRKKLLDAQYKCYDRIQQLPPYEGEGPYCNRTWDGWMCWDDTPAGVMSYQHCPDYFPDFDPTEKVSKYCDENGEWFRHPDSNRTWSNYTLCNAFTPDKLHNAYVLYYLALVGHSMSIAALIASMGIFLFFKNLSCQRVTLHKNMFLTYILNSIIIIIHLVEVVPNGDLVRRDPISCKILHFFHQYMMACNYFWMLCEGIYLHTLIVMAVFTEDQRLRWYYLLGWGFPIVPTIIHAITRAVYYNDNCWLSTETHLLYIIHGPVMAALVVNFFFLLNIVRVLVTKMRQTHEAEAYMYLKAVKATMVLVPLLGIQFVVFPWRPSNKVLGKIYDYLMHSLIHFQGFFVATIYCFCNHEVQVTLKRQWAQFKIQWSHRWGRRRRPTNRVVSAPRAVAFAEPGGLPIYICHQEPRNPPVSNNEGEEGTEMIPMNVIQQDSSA
T3 sequence (looked up) 2: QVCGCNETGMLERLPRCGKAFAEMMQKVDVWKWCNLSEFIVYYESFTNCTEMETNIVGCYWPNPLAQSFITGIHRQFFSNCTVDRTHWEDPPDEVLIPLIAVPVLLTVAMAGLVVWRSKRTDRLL
Nature of the test: SPA competition vs 125I-rat amylin, membranes of BHK cells with rat calcitonin receptor + rat RAMP3 (Assay VI).

Numbered stars: 1 amine (or outer) side, 2 acyl side, 3 side chain; on linkers, the order of the positions; unused ones are H or OH. Bridge positions count the residues as written; N and C are the ends. Side chains are listed from the residue outwards. Ends that are not written are not given here. * marks the point of attachment. C20 diacid = O=C(O)CCCCCCCCCCCCCCCCCCC(=O)*; γGlu = O=C(O)[C@H](CCC(=O)[*:2])N[*:1]

B1: N^ε1-[(4S)-4-carboxy-4-(19-carboxynonadecanoylamino)butanoyl]-[Arg14,Arg17,Pro21,Pro27]-h-amylin (peptide)
peptide: K([γGlu-C20 diacid])CNTATCATQRLARFLRHSSPNFGAIPSSTNVGSNTY-NH2
modifications: disulfide 2-7; N-terminus assumed
SMILES: CC[C@H](C)[C@H](NC(=O)[C@H](C)NC(=O)CNC(=O)[C@H](Cc1ccccc1)NC(=O)[C@H](CC(N)=O)NC(=O)[C@@H]1CCCN1C(=O)[C@H](CO)NC(=O)[C@H](CO)NC(=O)[C@H](Cc1c[nH]cn1)NC(=O)[C@H](CCCNC(=N)N)NC(=O)[C@H](CC(C)C)NC(=O)[C@H](Cc1ccccc1)NC(=O)[C@H](CCCNC(=N)N)NC(=O)[C@H](C)NC(=O)[C@H](CC(C)C)NC(=O)[C@H](CCCNC(=N)N)NC(=O)[C@H](CCC(N)=O)NC(=O)[C@@H](NC(=O)[C@H](C)NC(=O)[C@@H]1CSSC[C@H](NC(=O)[C@@H](N)CCCCNC(=O)CC[C@H](NC(=O)CCCCCCCCCCCCCCCCCCC(=O)O)C(=O)O)C(=O)N[C@@H](CC(N)=O)C(=O)N[C@@H]([C@@H](C)O)C(=O)N[C@@H](C)C(=O)N[C@@H]([C@@H](C)O)C(=O)N1)[C@@H](C)O)C(=O)N1CCC[C@H]1C(=O)N[C@@H](CO)C(=O)N[C@@H](CO)C(=O)N[C@H](C(=O)N[C@@H](CC(N)=O)C(=O)N[C@H](C(=O)NCC(=O)N[C@@H](CO)C(=O)N[C@@H](CC(N)=O)C(=O)N[C@H](C(=O)N[C@@H](Cc1ccc(O)cc1)C(N)=O)[C@@H](C)O)C(C)C)[C@@H](C)O
notes: Analogue of human amylin; also called compound 83
With B1, the “Ratio rCT/rAmylin binding” value with rat calcitonin receptor [1] stood at 49.7. In addition, the “Ratio hCT/hAmylin binding” value in test [2] amounted to 146. The 50% inhibitory concentration (IC50) in the test with rat calcitonin receptor [3] was 140 nM; in test [4], 2.83 nM.

B2: N^ε1-[(4S)-4-carboxy-4-(19-carboxynonadecanoylamino)butanoyl]-[Arg17,Pro21,Pro27,His35]-h-amylin (peptide)
peptide: K([γGlu-C20 diacid])CNTATCATQRLANFLRHSSPNFGAIPSSTNVGSHTY-NH2
modifications: disulfide 2-7; N-terminus assumed
SMILES: CC[C@H](C)[C@H](NC(=O)[C@H](C)NC(=O)CNC(=O)[C@H](Cc1ccccc1)NC(=O)[C@H](CC(N)=O)NC(=O)[C@@H]1CCCN1C(=O)[C@H](CO)NC(=O)[C@H](CO)NC(=O)[C@H](Cc1c[nH]cn1)NC(=O)[C@H](CCCNC(=N)N)NC(=O)[C@H](CC(C)C)NC(=O)[C@H](Cc1ccccc1)NC(=O)[C@H](CC(N)=O)NC(=O)[C@H](C)NC(=O)[C@H](CC(C)C)NC(=O)[C@H](CCCNC(=N)N)NC(=O)[C@H](CCC(N)=O)NC(=O)[C@@H](NC(=O)[C@H](C)NC(=O)[C@@H]1CSSC[C@H](NC(=O)[C@@H](N)CCCCNC(=O)CC[C@H](NC(=O)CCCCCCCCCCCCCCCCCCC(=O)O)C(=O)O)C(=O)N[C@@H](CC(N)=O)C(=O)N[C@@H]([C@@H](C)O)C(=O)N[C@@H](C)C(=O)N[C@@H]([C@@H](C)O)C(=O)N1)[C@@H](C)O)C(=O)N1CCC[C@H]1C(=O)N[C@@H](CO)C(=O)N[C@@H](CO)C(=O)N[C@H](C(=O)N[C@@H](CC(N)=O)C(=O)N[C@H](C(=O)NCC(=O)N[C@@H](CO)C(=O)N[C@@H](Cc1c[nH]cn1)C(=O)N[C@H](C(=O)N[C@@H](Cc1ccc(O)cc1)C(N)=O)[C@@H](C)O)C(C)C)[C@@H](C)O
notes: Analogue of human amylin; also called compound 60
As to B2, in the test with rat calcitonin receptor [1], the “Ratio rCT/rAmylin binding” value came out at 122. Moreover, in test [2], the “Ratio hCT/hAmylin binding” value came out at 45.2. Further, the IC50 turned out to be 26.3 nM with rat calcitonin receptor [3] and 0.215 nM in test [4].

B3: N^ε1-[(4S)-4-carboxy-4-(19-carboxynonadecanoylamino)butanoyl]-[Arg17,Pro21,Pro27,His34]-h-amylin (peptide)
peptide: K([γGlu-C20 diacid])CNTATCATQRLANFLRHSSPNFGAIPSSTNVGHNTY-NH2
modifications: disulfide 2-7; N-terminus assumed
SMILES: CC[C@H](C)[C@H](NC(=O)[C@H](C)NC(=O)CNC(=O)[C@H](Cc1ccccc1)NC(=O)[C@H](CC(N)=O)NC(=O)[C@@H]1CCCN1C(=O)[C@H](CO)NC(=O)[C@H](CO)NC(=O)[C@H](Cc1c[nH]cn1)NC(=O)[C@H](CCCNC(=N)N)NC(=O)[C@H](CC(C)C)NC(=O)[C@H](Cc1ccccc1)NC(=O)[C@H](CC(N)=O)NC(=O)[C@H](C)NC(=O)[C@H](CC(C)C)NC(=O)[C@H](CCCNC(=N)N)NC(=O)[C@H](CCC(N)=O)NC(=O)[C@@H](NC(=O)[C@H](C)NC(=O)[C@@H]1CSSC[C@H](NC(=O)[C@@H](N)CCCCNC(=O)CC[C@H](NC(=O)CCCCCCCCCCCCCCCCCCC(=O)O)C(=O)O)C(=O)N[C@@H](CC(N)=O)C(=O)N[C@@H]([C@@H](C)O)C(=O)N[C@@H](C)C(=O)N[C@@H]([C@@H](C)O)C(=O)N1)[C@@H](C)O)C(=O)N1CCC[C@H]1C(=O)N[C@@H](CO)C(=O)N[C@@H](CO)C(=O)N[C@H](C(=O)N[C@@H](CC(N)=O)C(=O)N[C@H](C(=O)NCC(=O)N[C@@H](Cc1c[nH]cn1)C(=O)N[C@@H](CC(N)=O)C(=O)N[C@H](C(=O)N[C@@H](Cc1ccc(O)cc1)C(N)=O)[C@@H](C)O)C(C)C)[C@@H](C)O
notes: Analogue of human amylin; also called compound 77
B3: in the test with rat calcitonin receptor [1], the “Ratio rCT/rAmylin binding” value turned out to be 137. Moreover, the “Ratio hCT/hAmylin binding” value in test [2] came to 118. The IC50 in the test with rat calcitonin receptor [3] worked out at 205 nM; in test [4], 1.5 nM.

B4: N^ε1-[(4S)-4-carboxy-4-(19-carboxynonadecanoylamino)butanoyl]-[Arg17,Pro21,Pro27,Arg34]-h-amylin (peptide)
peptide: K([γGlu-C20 diacid])CNTATCATQRLANFLRHSSPNFGAIPSSTNVGRNTY-NH2
modifications: disulfide 2-7; N-terminus assumed
SMILES: CC[C@H](C)[C@H](NC(=O)[C@H](C)NC(=O)CNC(=O)[C@H](Cc1ccccc1)NC(=O)[C@H](CC(N)=O)NC(=O)[C@@H]1CCCN1C(=O)[C@H](CO)NC(=O)[C@H](CO)NC(=O)[C@H](Cc1c[nH]cn1)NC(=O)[C@H](CCCNC(=N)N)NC(=O)[C@H](CC(C)C)NC(=O)[C@H](Cc1ccccc1)NC(=O)[C@H](CC(N)=O)NC(=O)[C@H](C)NC(=O)[C@H](CC(C)C)NC(=O)[C@H](CCCNC(=N)N)NC(=O)[C@H](CCC(N)=O)NC(=O)[C@@H](NC(=O)[C@H](C)NC(=O)[C@@H]1CSSC[C@H](NC(=O)[C@@H](N)CCCCNC(=O)CC[C@H](NC(=O)CCCCCCCCCCCCCCCCCCC(=O)O)C(=O)O)C(=O)N[C@@H](CC(N)=O)C(=O)N[C@@H]([C@@H](C)O)C(=O)N[C@@H](C)C(=O)N[C@@H]([C@@H](C)O)C(=O)N1)[C@@H](C)O)C(=O)N1CCC[C@H]1C(=O)N[C@@H](CO)C(=O)N[C@@H](CO)C(=O)N[C@H](C(=O)N[C@@H](CC(N)=O)C(=O)N[C@H](C(=O)NCC(=O)N[C@@H](CCCNC(=N)N)C(=O)N[C@@H](CC(N)=O)C(=O)N[C@H](C(=O)N[C@@H](Cc1ccc(O)cc1)C(N)=O)[C@@H](C)O)C(C)C)[C@@H](C)O
notes: Analogue of human amylin; also called compound 79
For the molecule B4, in the test with rat calcitonin receptor [1], the “Ratio rCT/rAmylin binding” value came out at 21.5. For the same molecule, the “Ratio hCT/hAmylin binding” value in test [2] is 46.1. Besides, the IC50 in the test with rat calcitonin receptor [3] amounted to 35.5 nM; in test [4] it was 1.65 nM.

A word on the IC50: it is the concentration at which inhibition is half-maximal.
